# Target: GST-tagged NbSAMS2 (GST-NbSAMS2) (N. benthamiana)
substance,measurement,value
GST-C4 (natural protein),"NbSAMS2 enzymatic activity in vitro (conversion of 35S-Met to 35S-SAM, TLC) after pre-incubation with varying amounts of GST-C4; reduction of activity at an 8:1 molar ratio of C4:NbSAMS2",80%

# Source: paper PMC6133388
